From the DeepSol protein solubility set

Assay: soluble on expression in E. coli; label from the status in PepcDB or PDB records

Sequence	soluble on expression in E. coli
MGSSHHHHHHHSSGRENLYFQGHMEGVRWAFSCGTWLPSRAEWLLAVRSIQPEEKERIGQFVFARDAKAAMAGRLMIRKLVAEKLNIPWNHIRLQRTAKGKPVLAKDSSNPYPNFNFNISHQGDYAVLAAEPELQVGIDIMKTSFPGRGSIPEFFHIMKRKFTNKEWETIRSFKDEWTQLDMFYRNWALKESFIKAIGVGLGFELQRLEFDLSPLNLDIGQVYKETRLFLDGEEEKEWAFEESKIDEHHFVAVALRKPDGSRHQDVPSQDDSKPTQRQFTILNFNDLMSSAVPMTPEDPSFWDCFCFTEEIPIRNGTKSLESG	soluble
MFEGKLVRLRAYRKEDIEKALEFANDPEVKKCLVPGIPFPWRKEDEEKWYQSLNPFSTDSYSFAIEKLSDGEYIGGCSINKIDWKNSVAEVGIFLGRPYWSQGYGTDAMRVLVRFIFNEMNMNKIKLHVFSFNERAKRVYEKIGFKVEGILRQELFREGRYHDVIVMGLLKSEWEDLTETDL	soluble
MGSQAAHMMSMDFEDFPVESAHRILTPRPTVMVTTVDEEGNINAAPFSFTMPVSIDPPVVAFASAPDHHTARNIESTHEFVINITPADIIERMWVTARDIPAGENELEAAGLAWTSSRRVKPPRIVEAPGHLECELLRMFEVGDHNLITGSVVSASVRSGAVKEGLLDVESVKPVLHVGGNKFVVGD	not soluble
MSGINARPTNSIFSNLCQIFSSLQGCLKTQTPFSDGLFSLKSPYRSIRKHRRIIMEVTISAIINGEFADQYGKRGSQFNENGMLI	not soluble
MSLRELQNALYFSEVVFGPNLEKIVGEKRLNFWLKLIGEDPENLKEFLSRKGNSFEEQTLPEKEAIVPNRLGEEALEKVREELEFLNTYSTKHVRRVKELGVQIPFEGILLPFISMYIEKFQQQQLRKKIGPIHEEIWTQIVQDITSKLNAILHRTLILELNVARVTSQLKGDTPEERFAYYSKTYLGKREVTHRLYSEYPVVLRLLFTTISHHISFITEILERVANDREAIETEFSPCSPIGTLASLHLNSGDAHHKQRTVTILEFSSSLKLVYKPRSLKVDGVFNGLLAFLNDRTGEVIKDQYCPKVLQRDGYGYVEFVTHQSCQSLEEVSDFYERLGSLMSLSYVLNSSDFHFENIIAHGPYPVLIDLETIIHNTADSSEETSTAMDRAFRMLNDSVLSTGMLPSSIYYRDQPNMKGLNVGGVSKSEGQKTPFKVNQIANRNTDEMRIEKDHVTLSSQKNLPIFQSAAMESVHFLDQIQKGFTSMYQWIEKNKQEFKEQVRKFEGVPVRAVLRSTTRYTELLKSSYHPDLLRSALDREVLLNRLTVDSVMTPYLKEIIPLEVEDLLNGDVPYFYTLPEERALYQEASAINSTFFTTSIFHKIDQKIDKLGIEDHTQQMKILHMSMLASNANHYADVADLEGHHHHHH	soluble
MKNNVKNWTTKEVKQSLDKFNNILIKNTFLLQYLKKEFSASSAYCLSMLPEEEDIYEILVNGNIIIDLEFNKHTNETVVINVTDVDEYLKTLTNESGRVFFTLAKEIGKQKNI	not soluble
MEFGASFAYRRIDAHVEATLQEAAQVLEKLVIERDAESAITVASQGTPDAISITQAAHETISIDSILRSSKQPKATIRTPRDSNKNRKLTFPPARIGFKSEQLETCDSGITDSTIDQDPPTPDSLFPSAIYIPAKQKPQMTVSISATTASSCSNKSLYRKHIEKLAIEPLEDIKHLKCRGLKKSKPDDLFPKATYDAGTGKPKMALSPSSMVSVDLSYASTTAKSNSLAYQPMEFVSSDGRVKLWLQPLEKQKKKNSEKSKKRERCIDDAPIPPKQLQSSTKLNIENRTKFSTNLSIGDHVIDLSGILNGSMKKKNLAKLVINGQSYSI	not soluble
MGSDKIHHHHHHMEKIIEINDSIIQISDLNDRIYIMKLGKDVGELIKHVDSVCNEKKLSKVFAKVSGNKKELFEKNGYICEGKLENYYSNDDAYFMSKFFEESRKISKFSKEAEDVLNYVKTVGVNPHTKIDEKFHLKIANETDAEKLSKHYSKVFKTYPFPIDDPNYILKTMQTNVKYFIIEDNGKIVAASSCEMDIKNKCVEMTDFAVLEEYQKLGLSKYLLYIMEKIMKDNGYRVFYTIARSISYGMNITFKKMGYMYSGTAVNNTNICGNFEDMNFWYKLSE	not soluble
MENKYTHGVLFYHEHSGLKNINQGIGEVTTALSSICKHLSIQLSENEGDIIKYCQEIKTKNYAKDVDILFILGGDGTVNELINGVMTHDLQLPIGILPGGTFNDFTKTLNIAPNHKQASEQMISAQVGKYDVIKINNQYALNFVGLGLIVQNAENVQDGSKDIFGKLSYIGSTVKTLLNPTQFNYQLSIDDKTYSGETTMILTANGPFIGGSRIPLTDLSPQDGELNTFIFNEQSFSILNDIFKKRDSMNWNEITQGIEHIPGKKISLTTDPAMKVDIDGEISLETPIDIEVIPNAIQLLTVNDLLEHHHHHH	not soluble
MNVDLHCHSTASDGALSPTALVARAHEYGVRVLSLTDHDTLEGLEEARTAAHSLGMQLVNGVELSCTWGGATIHVLGYGFDTQAPALTEAIARLHEGRWLRAEEISRKLAIKGMPGALEGARAIQQALGDSGNAPARPHFADFMVRAGFVKDRAEAFRKWLGAGKLGDVKQHWPTLEDTVATLRASGAWVSLAHPSHYDFTRSKRRKLVGDFVQAGGHAIEVVNGMQPADQVGTLAILAREFGLLVSAGSDFHGPGNWGEIGTYRPVPEDLPPLWCRFKHEQPTAAV	not soluble
MAFTESDVYNNEAFFKQYMKRRYRENSPNELIEKPAFFQLIGDVKGKKILDLGCGDAIFGKELLEKDCHSYTGIEGSELMYEKAKKQLENKNGIVHFLNLKDYTYPPATFDLVTSRLALHYIEHLPIIFQNVYETLKTNGTFTFSVQHPVITSSFESLQTSGKRTSWLVDDYFKTGKRVEPWIDQKVIKYHRTTEEYFTLLQQAGFTITNLKEATPNQTYFQSAEEYERRLRIPLFLLFSCRKLEHHHHHH	soluble
MITVVGGTFSKLHKGHKALLNTAIDTGNEVVIGLTSDEYVKKNKVYPAIPYSVRYRTLYNYMIKRTNKFRIRQIDDRNGNAPYEKDYEVIVVSPETYPRSLKINEIRISNGLPPLKIIRVPYVLAQDLFPISSTRIINGEID	not soluble
MGSSTSTPAPPPKKNKPEGRKADNQILNSYQKSIVRNAWRHMSQKGPSNCGSTITRRMMARKSTIGDILDRSTLDYHNLQIVEFLQKVMQSLDEPDKISKLCQEIGQKHAKYRRSKGMKIDYWDKLGEAITETIREYQGWKIHRESLRAATVLVSYVVDQLRFGYSRGLHVQGSRETKEDDEE	not soluble
MGSDKIHHHHHHMEKTVQLEHMNTRVFVEGAYDTALIPLGSCESHGDHLPFAMDALTAHKLALGVAERMEKVFVLPPTFFGFSQHYWHKPMSISLSQDTNIRVIADILDSLAHWKIRNVLIINGHDGNISAIDVAARAARLRHPDMKIGSLDAWWVTAGNLLPKDTFEVWNGLGHGGEGETSIGLACFPELVDMAHARGMIPEVDENVKELWDFSELTDYGATGAPEKATREKGQAMYDVLVDYLVAYLTKRRDTNWAYNPK	not soluble
MASNQQDVVKELNQQVANWTVAYTKLHNFHWYVKGPNFFSLHVKFEELYNEASQYVDELAERILAVGGNPVGTLTECLEQSIVKEAAKGYSAEQMVEELSQDFTNISKQLENAIEIAGNAGDDVSEDMFIGMQTSVDKHNWMFKSYLSLEHHHHHH	soluble
MSLKPTDLNLIPIFIAIYEERNLSRAAARLDITQPAVSKALARLRDIYDEPLFHRSSSGVEPTSFAVDIYPAMVAAIKNFTSTLSASVEFDPKVSNRIFSIACVSILSYELLPQLMKQIHELAPNIALEVHPLFTEDYESDLRLQRYDLIIDLAPRGRTVLKVEPVITERLMVVCNKDHPRIAESISQEQFFEEEHVAVSQWQSRKSMLSAEDIVDLDKRKIMYRAAGALEMLPVICGSEYIGLMPESMIKLFSNTYHVKALPFPFDVTTYDLCTIWHPSRTNESAHQWLRAQIKHAGKVIKEGHHHHHH	soluble
MAHHHHHHMIEHLNLWLPWKHRKPMWPYPQKNAMPSVFPLEFTTLGEGVVTFSCLCLAAVLAVQEVLTPSHGFPTVLVAFPHKRGGVSSALLYSKVVEAFIQSLRSESALVEAVTVRHMARAALQALNTIINACFSEQYPLYTMAQLLLSEGKAEAKDATHDGGMLGAVDLVLSIDPLSCGGDILHSETQLVMPTPFAIRSVGRCTPGAARQQTNVKLPSALEVTDAALLQMPGAGESSTGRRLSACILERSQVLLTLLK	not soluble
APLFIKNVNGIKVAILSYAYGFNGLESNLTEKEIANHLSNLDEKRMKVEIERAEKEADVTVIMPQMGVEYRLEPTDEQVKLYHKMIDWGADIIFGGHPHVVEPSEVVKKDGQQKLIIYSMGNFISNQRIETVDGVDNAAWTERSVLMDVTLEKKNCQTTIKTAQAHPTWVNRTPKGTISPEGYPLYTYQTYILEDFIKGRKYRNKLDEETKERIDTAYKEMNAHVNL	not soluble
MAEVVNISKSASFSKQEKEFSDFQKSKESNEKILNKESNRFTLHPIMYPEVWNFYKKAEASFWTAEEIDLSSDLKDFEKLNVNEKHFIKHVLAFFAASDGIVLENLASKFLREVEIIEAKKFYSFQIAVENIHSETYSLLIDNYIKDEKERLNLFHAIENIPAIKNKALWAAKWINDTNSFAERIVANACVEGILFSGSFCAIFWFKKQNKLHGLTFSNELISRDEGLHTDFNCLIYSLLENKLPENVVQNIVKEAVEVERSFICESLPCDLIGMNSRLMSQYIEFVADRLLECLGCSKVFHSKNPFNWMDLISLQGKTNFFEKRVADYQKSGVMAQRKEQVFSLNTDF	soluble
MNQWMELADRVLAGAEVTDEEALSILHCPDEDILLLMHGAFHIRKHFYGKKVKLNMIMNAKSGLCPENCGYCSQSAISKAPIESYRMVNKETLLEGAKRAHDLNIGTYCIVASGRGPSNREVDQVVDAVQEIKETYGLKICACLGLLKPEQAKRLKDAGVDRYNHNLNTSQRNHSNITTSHTYDDRVNTVEIAKESGLSPCSGAIIGMKETKQDVIDIAKSLKALDADSIPVNFLHAIDGTPLEGVNELNPLYCLKVLALFRFINPSKEIRISGGREVNLRTLQPLGLYAANSIFVGDYLTTAGQEETEDHKMLSDLGFEVESVEEMKASLSAKSLEHHHHHH	not soluble
MQQVPDKIYVSRSRLKSNRRRLINETDVERLFSRNGFQIIHPQELTIKEQINLFRHAQVIAGPLGSAMYNCVFQTKPTKKLLLTYEKFIKMSDLLINTSTNGLLYYFAGTEHKQNKSPSNTEWSINLNQLEHHHHHH	not soluble
MEPTEKSMLLETTSTTKMETKYEDMLPVMAEKMDVEEFVSELCKGFSLLADPERHLITAESLRRNSGILGIEGMSKEDAQGMVREGDLDGDGALNQTEFCVLMVRLSPEMMEDAETWLEKALTQELCNHNLSSMP	soluble
MGSDKIHHHHHHCGGSGSSEPVAPTTTPDTGFSFAATAMITNLTQEVIVTGYADLAAKGSELVLATQKLINSTSQADLVAAQDAWKAARQPWEQGESHIFGPVDSLSIDPHLDSWPLNTTDLSTQLTTAAGFDAETIKSWNDDVQGFHTMEYLLFGDGVADNTKDISELTVKEREYLIALAQVFRDHAKTLDDAWQINHKPDDANAKPYAELLSQPGVDGNTVYSSELAVIEELINGMIGIVDEVGNGKISDPFGDSITSADTSKVESQYSWNSLTDFANNIQGVRNVYQGEFTGNTDKQGVKDFVSAADANLAVRVASEIDDAIIKIQAISGSNSMPFRQAIKDANGRVRIQTAIDALTKLKTSLESDVIPLLSKWKPA	not soluble
